What was measured:
[1] = molecular target: T1, CHIP (Mus musculus, UniProt Q9WUD1); experiment: Co-immunoprecipitation of bOVA with anti-CHIP; assay type: binding; conditions: DC2.4 cells incubated with bOVA
T1 construct: endogenous in cells; host or cells: DC2.4 mouse dendritic cell line
T1 sequence (Q9WUD1 1-304): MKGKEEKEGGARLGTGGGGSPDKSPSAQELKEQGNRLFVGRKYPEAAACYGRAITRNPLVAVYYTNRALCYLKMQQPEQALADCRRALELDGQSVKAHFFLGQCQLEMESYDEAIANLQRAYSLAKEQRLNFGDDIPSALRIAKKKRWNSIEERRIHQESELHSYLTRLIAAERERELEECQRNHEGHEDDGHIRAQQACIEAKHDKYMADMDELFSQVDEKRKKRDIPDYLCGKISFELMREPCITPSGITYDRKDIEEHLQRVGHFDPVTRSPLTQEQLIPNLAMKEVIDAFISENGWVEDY
Method: (§1) 2×10^7 DC2.4 or BMDC cells were cultured for four hours in a medium containing 10 μM MG-132 in the presence of bOVA at 250 μg mL^−1. Cells were lysed in 20 mM HEPES pH7.6 containing 1% digitonin and protease inhibitors to collect biotin-labeled samples. The samples were cleared of impurities in advance using protein G sepharose (Amersham Pharmacia Biotech), and after incubation with antibodies for precipitation (anti-Sec61β, anti Sec61α, anti-VCP, anti-BiP, anti-PDI, anti-calreticulin, anti-TAP1, and anti-TAP2), the immunoprecipitates were collected using protein G. When chicken anti-CHIP antibody was used, immunoprecipitates were collected using a rabbit anti-IgY column (a person, MBL). The precipitated samples were analyzed by SDS-PAGE and Western blotting.

[2] = tested on: DC2.4 cells; experiment: Polyubiquitination of antigen taken up by DC2.4 cells (Western blot, anti-polyubiquitin antibody); assay type: cell-based, mouse; conditions: CHIP-knocked-down DC2.4 (C4) vs parental DC2.4
[3] = molecular target: T2, VCP (Mus musculus, UniProt Q01853); experiment: Co-immunoprecipitation of bOVA with anti-VCP; assay type: binding
T2 construct: endogenous in cells; host or cells: DC2.4 mouse dendritic cell line; bone marrow-derived dendritic cells
T2 sequence (Q01853 2-806 limits assumed): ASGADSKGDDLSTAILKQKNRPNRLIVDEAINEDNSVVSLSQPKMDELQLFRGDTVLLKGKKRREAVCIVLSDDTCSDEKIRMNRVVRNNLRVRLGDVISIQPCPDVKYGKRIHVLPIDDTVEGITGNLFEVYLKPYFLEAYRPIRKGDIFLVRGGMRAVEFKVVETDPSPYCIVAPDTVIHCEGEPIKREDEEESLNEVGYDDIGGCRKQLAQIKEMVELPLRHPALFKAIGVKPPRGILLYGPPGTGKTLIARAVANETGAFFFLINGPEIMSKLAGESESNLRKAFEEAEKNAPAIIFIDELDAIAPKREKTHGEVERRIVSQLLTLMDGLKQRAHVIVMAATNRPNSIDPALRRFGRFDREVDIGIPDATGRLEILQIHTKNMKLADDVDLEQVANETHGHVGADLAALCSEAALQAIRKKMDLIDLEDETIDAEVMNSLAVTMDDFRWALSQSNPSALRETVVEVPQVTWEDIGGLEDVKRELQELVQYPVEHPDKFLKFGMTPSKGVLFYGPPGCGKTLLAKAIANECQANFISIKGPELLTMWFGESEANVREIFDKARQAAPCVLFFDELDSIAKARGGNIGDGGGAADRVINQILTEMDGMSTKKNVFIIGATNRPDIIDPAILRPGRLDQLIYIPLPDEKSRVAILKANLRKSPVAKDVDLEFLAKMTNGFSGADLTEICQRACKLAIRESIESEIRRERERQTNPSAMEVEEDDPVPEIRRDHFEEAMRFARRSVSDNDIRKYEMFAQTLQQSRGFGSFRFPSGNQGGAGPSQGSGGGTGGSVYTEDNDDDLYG
Method: as §1

[4] = molecular target: T3, BiP (Mus musculus, UniProt P20029); experiment: Co-immunoprecipitation of bOVA with anti-BiP; assay type: binding; conditions: DC2.4 cells incubated with bOVA
T3 construct: BiP, an endogenous ER protein, was detected in the same microsomal fraction; endogenous in cells; host or cells: DC2.4 mouse dendritic cell line
T3 sequence (P20029 20-655): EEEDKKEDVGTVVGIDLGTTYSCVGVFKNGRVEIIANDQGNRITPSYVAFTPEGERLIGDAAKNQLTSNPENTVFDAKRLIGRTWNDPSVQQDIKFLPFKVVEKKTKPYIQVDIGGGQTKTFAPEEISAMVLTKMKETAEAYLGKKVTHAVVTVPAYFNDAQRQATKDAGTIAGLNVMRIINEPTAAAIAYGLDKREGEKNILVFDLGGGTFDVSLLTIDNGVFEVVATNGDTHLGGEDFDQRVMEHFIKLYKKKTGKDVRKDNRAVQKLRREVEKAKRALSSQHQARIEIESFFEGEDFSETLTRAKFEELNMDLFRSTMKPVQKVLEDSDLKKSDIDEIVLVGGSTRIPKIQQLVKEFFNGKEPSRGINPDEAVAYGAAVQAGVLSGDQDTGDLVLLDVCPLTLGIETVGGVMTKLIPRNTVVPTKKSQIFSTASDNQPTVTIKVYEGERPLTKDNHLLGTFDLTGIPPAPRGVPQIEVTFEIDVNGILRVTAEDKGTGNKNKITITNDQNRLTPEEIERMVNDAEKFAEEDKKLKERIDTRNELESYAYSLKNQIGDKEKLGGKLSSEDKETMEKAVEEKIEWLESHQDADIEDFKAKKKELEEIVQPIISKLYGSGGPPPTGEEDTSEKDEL
Method: as §1

[5] = molecular target: T4, Sec61α (Mus musculus, UniProt P61620); experiment: Co-immunoprecipitation of bOVA with anti-Sec61α; assay type: binding; conditions: DC2.4 cells incubated with bOVA
T4 construct: endogenous in cells; host or cells: DC2.4 mouse dendritic cell line
Method: as §1

[6] = molecular target: T5, TAP1 (Mus musculus, UniProt P21958); experiment: Co-immunoprecipitation of bOVA with anti-TAP1; assay type: binding; conditions: DC2.4 cells incubated with bOVA
T5 construct: endogenous in cells; host or cells: DC2.4 mouse dendritic cell line
T5 sequence (P21958 1-724): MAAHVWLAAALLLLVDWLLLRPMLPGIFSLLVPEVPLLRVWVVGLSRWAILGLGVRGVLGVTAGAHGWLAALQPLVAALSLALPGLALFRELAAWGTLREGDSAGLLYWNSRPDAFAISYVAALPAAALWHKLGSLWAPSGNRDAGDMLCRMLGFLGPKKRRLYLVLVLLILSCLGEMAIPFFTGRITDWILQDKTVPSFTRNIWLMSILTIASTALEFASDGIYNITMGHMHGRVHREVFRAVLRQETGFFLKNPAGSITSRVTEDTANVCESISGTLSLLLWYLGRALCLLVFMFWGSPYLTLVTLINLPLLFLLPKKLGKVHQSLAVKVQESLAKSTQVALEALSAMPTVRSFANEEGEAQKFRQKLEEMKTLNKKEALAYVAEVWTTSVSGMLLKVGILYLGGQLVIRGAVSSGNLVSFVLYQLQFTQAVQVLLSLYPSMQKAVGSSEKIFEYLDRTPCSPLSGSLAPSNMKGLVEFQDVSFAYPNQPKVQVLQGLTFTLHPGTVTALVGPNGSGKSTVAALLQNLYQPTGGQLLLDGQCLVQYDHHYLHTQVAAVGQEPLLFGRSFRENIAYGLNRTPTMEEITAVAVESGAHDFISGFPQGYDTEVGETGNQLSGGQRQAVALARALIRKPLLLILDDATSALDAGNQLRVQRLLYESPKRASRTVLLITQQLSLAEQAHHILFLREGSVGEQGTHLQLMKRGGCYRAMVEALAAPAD
Method: as §1

[7] = molecular target: T6, calreticulin (Mus musculus, UniProt P14211); experiment: Co-immunoprecipitation of bOVA with anti-calreticulin; assay type: binding; conditions: DC2.4 cells incubated with bOVA
T6 construct: Three types of ER resident proteins; endogenous in cells; host or cells: DC2.4 mouse dendritic cell line
T6 sequence (P14211 18-416): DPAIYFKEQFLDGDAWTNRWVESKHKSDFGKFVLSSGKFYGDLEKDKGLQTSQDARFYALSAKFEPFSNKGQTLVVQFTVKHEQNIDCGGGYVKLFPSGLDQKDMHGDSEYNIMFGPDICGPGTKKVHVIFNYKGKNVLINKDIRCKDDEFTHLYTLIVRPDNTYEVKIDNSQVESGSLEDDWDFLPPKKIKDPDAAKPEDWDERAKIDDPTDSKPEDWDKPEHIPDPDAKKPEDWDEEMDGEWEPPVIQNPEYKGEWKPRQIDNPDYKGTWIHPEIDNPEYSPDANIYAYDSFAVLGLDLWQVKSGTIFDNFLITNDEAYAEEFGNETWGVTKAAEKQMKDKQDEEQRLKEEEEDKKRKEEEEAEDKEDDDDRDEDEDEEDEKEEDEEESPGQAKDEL
Method: as §1

interaction with CHIP (co-immunoprecipitation) [1]: interacts
interaction with VCP (co-immunoprecipitation) ([3]; BMDCs): interacts
interaction with VCP (co-immunoprecipitation) ([3]; DC2.4 cells incubated with bOVA): interacts
interaction with BiP (co-immunoprecipitation) [4]: interacts
interaction with TAP1 (co-immunoprecipitation) [6]: does not interact
interaction with calreticulin (co-immunoprecipitation) [7]: interacts
B1: bOVA: biotin-labeled OVA antigen (protein)
chain: GSIGAASMEFCFDVFKELKVHHANENIFYCPIAIMSALAMVYLGAKDSTRTQINKVVRFDKLPGFGDSIEAQCGTSVNVHSSLRDILNQITKPNDVYSFSLASRLYAEERYPILPEYLQCVKELYRGGLEPINFQTAADQARELINSWVESQTNGIIRNVLQPSSVDSQTAMVLVNAIVFKGLWEKAFKDEDTQAMPFRVTEQESKPVQMMYQIGLFRVASMASEKMKILELPFASGTMSMLVLLPDEVSGLEQLESIINFEKLTEWTSSNVMEERKIKVYLPRMKMEEKYNLTSVLMAMGITDVFSSSANLSGISSAESLKISQAVHAAHAEINEAGREVVGSAEAGVDAASVSEEFRADHPFLFCIKHIATNAVLFFGRCVSP
polyubiquitination of bOVA in CHIP-knocked-down cells [2]: 34%
interaction with Sec61α (co-immunoprecipitation) [5]: interacts
